Test results: patent US20160194639

Target: α2-antiplasmin

B1: endogenous plasmin of mouse brain slices (protein)
chain: VYLSECKTGIGNGYRGTMSRTKSGVACQKWGATFPHVPNYSPSTHPNEGLEENYCRNPDNDEQGPWCYTTDPDKRYDYCNIPECEEECMYCSGEKYEGKISKTMSGLDCQAWDSQSPHAHGYIPAKFPSKNLKMNYCRNPDGEPRPWCFTTDPTKRWEYCDIPRCTTPPPPPSPTYQCLKGRGENYRGTVSVTVSGKTCQRWSEQTPHRHNRTPENFPCKNLEENYCRNPDGETAPWCYTTDSQLRWEYCEIPSCESSASPDQSDSSVPPEEQTPVVQECYQSDGQSYRGTSSTTITGKKCQSWAAMFPHRHSKTPENFPDAGLEMNYCRNPDGDKGPWCYTTDPSVRWEYCNLKRCSETGGSVVELPTVSQEPSGPSDSETDCMYGNGKDYRGKTAVTAAGTPCQGWAAQEPHRHSIFTPQTNPRAGLEKNYCRNPDGDVNGPWCYTTNPRKLYDYCDIPLCASASSFECGKPQVEPKKCPGRVVGGCVANPHSWPWQISLRTRFTGQHFCGGTLIAPEWVLTAAHCLEKSSRPEFYKVILGAHEEYIRGLDVQEISVAKLILEPNNRDIALLKLSRPATITDKVIPACLPSPNYMVADRTICYITGWGETQGTFGAGRLKEAQLPVIENKVCNRVEYLNNRVKSTELCAGQLAGGVDSCQGDSGGPLVCFEKDKYILQGVTSWGLGCARPNKPGVYVRVSRFVDWIEREMRNN
plasmin activity in brain slices (D-VLK chromogenic plasmin substrate assay): addition of the plasmin inhibitor α2-antiplasmin (Bajou et al., 2008) inhibited this activity
